The target in assay [1] is T1, mouse MSR1 extracellular domain expressed with a N-terminal nonahistidine tag (His9-mMSR1); R&D Systems, Cat … (mouse, UniProt P30204 79-458).
T1 construct: extracellular domain; not shown: N-terminal nonahistidine tag
T1 sequence (looked up): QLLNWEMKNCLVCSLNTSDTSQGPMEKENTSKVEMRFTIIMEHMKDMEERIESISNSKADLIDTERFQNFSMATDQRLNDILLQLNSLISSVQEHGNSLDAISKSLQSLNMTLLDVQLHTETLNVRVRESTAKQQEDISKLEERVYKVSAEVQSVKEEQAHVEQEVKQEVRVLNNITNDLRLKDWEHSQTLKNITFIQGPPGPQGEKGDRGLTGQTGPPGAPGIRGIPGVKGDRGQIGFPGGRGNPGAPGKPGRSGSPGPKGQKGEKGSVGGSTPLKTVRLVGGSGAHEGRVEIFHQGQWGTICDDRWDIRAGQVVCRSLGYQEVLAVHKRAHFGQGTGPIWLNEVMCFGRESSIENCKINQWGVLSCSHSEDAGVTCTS
As to the kind of experiment: BLI Octet, 25 C, antibody captured. (Biolayer interferometry detects binding as a change in optical thickness at a sensor tip.)

Assay [2] has as its target T2, human MSR1 extracellular domain expressed with a N-terminal nonahistidine tag (His9-hMSR1); R&D Systems, Cat … (human, UniProt P21757 77-451).
T2 construct: extracellular domain; also called His-hMSR1; 9xHis-hMSR1; not shown: N-terminal nonahistidine tag
T2 sequence (looked up): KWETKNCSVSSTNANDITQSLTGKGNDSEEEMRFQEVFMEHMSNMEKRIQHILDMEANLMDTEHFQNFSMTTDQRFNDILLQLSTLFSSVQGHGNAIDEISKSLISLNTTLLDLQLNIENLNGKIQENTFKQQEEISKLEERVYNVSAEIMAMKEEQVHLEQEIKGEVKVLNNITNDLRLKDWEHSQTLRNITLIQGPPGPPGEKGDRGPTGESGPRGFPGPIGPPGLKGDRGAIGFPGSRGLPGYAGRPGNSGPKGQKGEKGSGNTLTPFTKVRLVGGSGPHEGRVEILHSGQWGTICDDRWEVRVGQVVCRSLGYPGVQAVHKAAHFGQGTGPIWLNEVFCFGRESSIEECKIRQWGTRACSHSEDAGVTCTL
Put plainly: SPR Biacore, 37 C, antibody captured. A general note: In SPR one partner is held on a chip, and binding of the other changes the refractive index at the surface.

Assay [3] deals with T3, monkey MSR1 extracellular domain expressed with a N-terminal hexahistidine-myc-myc tag (HMM-mfMSR1) (monkey (Macaca fascicularis)).
T3 chain: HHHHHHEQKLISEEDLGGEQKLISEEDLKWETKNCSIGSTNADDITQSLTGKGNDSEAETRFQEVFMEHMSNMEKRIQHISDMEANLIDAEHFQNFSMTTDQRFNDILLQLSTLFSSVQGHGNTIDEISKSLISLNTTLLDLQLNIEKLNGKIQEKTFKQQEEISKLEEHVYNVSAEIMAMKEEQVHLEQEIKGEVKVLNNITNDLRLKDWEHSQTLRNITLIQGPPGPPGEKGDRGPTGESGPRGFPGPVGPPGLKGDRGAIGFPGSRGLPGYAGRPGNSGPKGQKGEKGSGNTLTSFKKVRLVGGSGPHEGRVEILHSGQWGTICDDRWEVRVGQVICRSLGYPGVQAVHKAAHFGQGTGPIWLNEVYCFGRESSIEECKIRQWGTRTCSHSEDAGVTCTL
Put plainly: SPR Biacore, 37 C, antibody captured.

The target of assay [4] is T2, human MSR1 extracellular domain …. Put plainly: SPR Biacore, 25 C, antibody captured.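 Also: rates from 1:1 fit with mass transport limitation of real-time sensorgrams, HEPES-buffered saline with EDTA and Tween-20 at pH 7.4, KD and t½ derived from the kinetic rates.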
Assay [5] addresses T3, monkey MSR1 extracellular domain …. As to the kind of experiment: SPR Biacore, 25 C, antibody captured.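 Also: rates from 1:1 fit with mass transport limitation of real-time sensorgrams, HEPES-buffered saline with EDTA and Tween-20 at pH 7.4, KD and t½ derived from the kinetic rates.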

B1: H1H27739P-N297Q (antibody, V domains shown)
VH: EVQLVESGGGLVQPGGSLRLSCTASGFTFSSYAMSWVRQAPGKGLEWVSAISGTGSSTYFTDSVKGRFAISRDNSKNTLYLQMNSLRAEDTAVYYCAKDGEWLSTVTLFDYWGQGTLVTVSS
VL: EIVMTQSPATLSVSPGERATLSCRASQSVSSNLAWYQQKPGQAPRLLIYGASTRATGIPARFSGSGSGTDFTLTISSLQSEDFALYYCQQYFIWPPHPTFGPGTKVDIKR
notes: Human IgG1 Fc with N297Q point mutation
In general, Kd refers to a measure of binding affinity in units of concentration. As a reminder, the koff is the rate constant with which the complex falls apart. In general, kon refers to the second-order rate constant of association. As a reminder, the t½ is the time needed for the level to fall by half in the phase considered. For the molecule B1, in assay [1], the binding result is reported as “no binding (tested: 50 nM)”. The dissociation constant (Kd) in assay [2] came to 3.72 nM; in assay [3] it was 0.374 nM; in assay [4], 2.74 nM; in assay [5] it was 0.41 nM. The koff stood at 0.00288 s⁻¹ in assay [2], 0.000842 s⁻¹ in assay [3], 0.00103 s⁻¹ in assay [4] and 0.000144 s⁻¹ in assay [5]. Moreover, the kon amounted to 776000 M⁻¹ s⁻¹ in assay [2], 2.25e+06 M⁻¹ s⁻¹ in assay [3], 375000 M⁻¹ s⁻¹ in assay [4] and 352000 M⁻¹ s⁻¹ in assay [5]. Moreover, the t½ worked out at 4 min in assay [2], 14 min in assay [3], 11 min in assay [4] and 80 min in assay [5].

B2: H1H27762P-N297Q (antibody, V domains shown)
VH: QVQLVQSGAEVKKPGSSVKVSCKASGGTFSRYDISWVRQAPGQGLEWMGGIIPIFGTSNYAQKFQGRVTITTDESTSTVYMELSSLRSEDTAVYYCARGGRYGWFDPWGQGTLVTVSS
VL: not shown
notes: Human IgG1 Fc with N297Q; tied by the numerical identifier; also called H1H27762P2-N297Q; H1H27762P2
Take B2: the binding result in assay [1] is “no binding (tested: 50 nM)”. In assay [2], this molecule gave a Kd of 0.64 nM, a koff of 0.00196 s⁻¹, a kon of 3.06e+06 M⁻¹ s⁻¹ and a t½ of 6 min. In addition, in assay [3], binding was put at a Kd of 0.698 nM, the off-rate (koff) came out at 0.00197 s⁻¹, the on-rate (kon) was 2.82e+06 M⁻¹ s⁻¹ and the t½ was found to be 6 min. In addition, in assay [4], binding was put at a Kd of 1.85 nM, the off-rate (koff) came to 0.00183 s⁻¹, the kon is 989000 M⁻¹ s⁻¹ and the t½ is 6 min. Besides, in assay [5], the affinity, expressed as Kd, was 1.59 nM; the koff stood at 0.00199 s⁻¹; the kon was 1.25e+06 M⁻¹ s⁻¹; the t½ is 6 min.

B3: H1H27731P-N297Q (antibody, V domains shown)
VH: QLQLQESGPGLVKPSETLSLTCTVSGGSISRISYYWGWIRQPPGKGLEWIGSIYDSGSTYYNPSLKSRVTISIDTSKNQFSLKLSSVTAADTAVYYCVRYSSSSAFAFDYWGQGTLVTVSS
VL: DIQMTQSPSSVSASVGDRVTITCRASQGISSWLAWYQQKPGKAPKLLIYAASSLQSGVPSRFSGSGSGTDFTLTISSLQPEDFATYYCQQANSFPFTFGPGTKVDIKR
notes: as for B1
Regarding B3, in assay [1], the binding result is listed as “no binding (tested: 50 nM)”. In assay [2], this molecule displayed a dissociation constant Kd of 0.462 nM, a koff of 0.000132 s⁻¹, an on-rate constant (kon) of 286000 M⁻¹ s⁻¹ and a t½ of 88 min. Moreover, in assay [3], the Kd was determined as 0.674 nM, the off-rate constant (koff) was found to be 0.000187 s⁻¹, the kon came to 278000 M⁻¹ s⁻¹ and the t½ is 62 min. Further, in assay [4], binding was characterised by a dissociation constant (Kd) of 0.174 nM, the koff turned out to be 2.24e-05 s⁻¹, the kon came to 129000 M⁻¹ s⁻¹ and the t½ came out at 515 min. Moreover, in assay [5], the Kd stood at 0.477 nM, the koff was 4.69e-05 s⁻¹, the on-rate (kon) turned out to be 98200 M⁻¹ s⁻¹ and the t½ turned out to be 247 min.

B4: H1H27734P-N297Q (antibody, V domains shown)
VH: EVQLVESRGGLVQPGGSLRLSCAASGFTFSSYAMSWVRQAPGKGLEWVSAISGSGGSTFYADSVKGRFTISRDNSKNTVYLQMNSLRAEDTAVYYCAKALVLRFLEWLGDYWGQGTLVTVSS
VL: DIQMTQSPSTLSASVGDRVTITCRASQSISSWLAWFQQKPGKAPKLLIYKASSLESGVPSRFSGSGSGTEFTLTISSLQPDDFATYYCQQYKSYWTFGQGTKVEIKR
notes: as for B1
For B4, in assay [1], the binding result is listed as “no binding (tested: 50 nM)”. In assay [2], this molecule yielded a Kd of 1.74 nM, a koff of 0.0019 s⁻¹, an on-rate constant (kon) of 1.09e+06 M⁻¹ s⁻¹ and a t½ of 6 min. Besides, in assay [3], the Kd was found to be 3.37 nM, the off-rate (koff) came out at 0.0032 s⁻¹, the kon was found to be 949000 M⁻¹ s⁻¹ and the t½ is 4 min. In assay [4], this molecule gave a Kd of 2.64 nM, a koff of 0.00111 s⁻¹, a kon of 420000 M⁻¹ s⁻¹ and a t½ of 10 min. Moreover, in assay [5], the dissociation constant Kd came out at 6.88 nM, the koff was 0.00291 s⁻¹, the association rate constant (kon) came out at 423000 M⁻¹ s⁻¹ and the t½ is 4 min.

B5: H1H27766P-N297Q (antibody, V domains shown)
VH: EVQLVESGGGLVQPGGSLRLSCAASGFTFSSFAMSWVRQAPGKELEWVSSISGRGGSTYYADSVRGRFTISRDNSKITLYLQMNSLRAEDTAVYYCAKDIVFRYTSSAYWYFDLWGRGTLVTVSS
VL: not shown
notes: Human IgG1 Fc with N297Q; tied by the numerical identifier; also called H1H27766P2-N297Q; H1H27766P2
On to B5, for which, in assay [1], the binding result is “no binding (tested: 50 nM)”. In assay [2], this molecule yielded a Kd of 0.227 nM, an off-rate constant (koff) of 7.72e-05 s⁻¹, a kon of 340000 M⁻¹ s⁻¹ and a t½ of 150 min. Also, in assay [3], the Kd was determined as 1.72 nM, the off-rate constant (koff) amounted to 0.000589 s⁻¹, the kon was found to be 343000 M⁻¹ s⁻¹ and the t½ came to 20 min. Further, in assay [4], binding was characterised by a dissociation constant (Kd) of 0.0796 nM, the koff amounted to 1.86e-05 s⁻¹, the association rate constant (kon) came out at 234000 M⁻¹ s⁻¹ and the t½ was found to be 620 min. In assay [5], this molecule had a dissociation constant (Kd) of 0.506 nM, a koff of 7.94e-05 s⁻¹, an on-rate constant (kon) of 157000 M⁻¹ s⁻¹ and a t½ of 145 min.

B6: H1H27756P-N297Q (antibody, V domains shown)
VH: QVQLVESGGGVVQPGRSLRLSCAASGFTFSNYDMHWVRQAPGKGLEWMAVISYDGINKYYADSVKGRFTISRDNSKNTLYLQMNSLRAEDTAVYYCAKGTYSWYFDLWGRGTLVTVSS
VL: not shown
notes: as for B1
For B6, the binding result in assay [1] is “no binding (tested: 50 nM)”. Moreover, the dissociation constant Kd stood at 1.16 nM in assay [2], 3.97 nM in assay [3], 0.406 nM in assay [4] and 6.81 nM in assay [5]. The t½ in assay [2] amounted to 15 min; in assay [3], 4 min; in assay [4] it was 94 min; in assay [5], 5 min.

B7: H1H27759P-N297Q (antibody, V domains shown)
VH: EVQLVESGGGFVQPGGSLRLSCAASGFTFSSYAMSWVRQAPGKGLEWVSAISGTGSNTYYADSVKGRFTISRDNSKNTLYLQMNSLRAEDTAVYYCAKDRVTTVTYYFDYWGQGTLVTVSS
VL: not shown
notes: Human IgG1 Fc with N297Q; tied by the numerical identifier; also called H1H27759P2-N297Q; H1xH27759P2
For the molecule B7, the binding result in assay [1] is “no binding (tested: 50 nM)”. Moreover, the dissociation constant Kd was 2.24 nM in assay [2], 1.28 nM in assay [3], 2.03 nM in assay [4] and 2.2 nM in assay [5]. The dissociation rate constant (koff) in assay [2] amounted to 0.0023 s⁻¹; in assay [3], 0.00188 s⁻¹; in assay [4], 0.00122 s⁻¹; in assay [5], 0.000919 s⁻¹. For the same molecule, the kon came to 1.03e+06 M⁻¹ s⁻¹ in assay [2], 1.46e+06 M⁻¹ s⁻¹ in assay [3], 599000 M⁻¹ s⁻¹ in assay [4] and 417000 M⁻¹ s⁻¹ in assay [5]. In addition, the t½ in assay [2] was found to be 5 min; in assay [3], 6 min; in assay [4] it was 9 min; in assay [5], 13 min.

B8: H1H27760P-N297Q (antibody, V domains shown)
VH: EVQLVESGGGLVQPGRSLRLSCAASGFTFDAYAMHWVRQAPGKGLEWVSGISWNSGSIGYADSVKGRFTISRDNAKNSLYLQMNSLREEDTALYYCAKDKILELYYYGMDVWGQGTTVTVSS
VL: not shown
notes: Human IgG1 Fc with N297Q; tied by the numerical identifier; also called H1H27760P2-N297Q; H1H27760P2
Consider B8, for which the binding result in assay [1] is recorded as “no binding (tested: 50 nM)”. The dissociation constant Kd was 1.74 nM in assay [2], 2 nM in assay [4] and 1.93 nM in assay [5]. Also, the t½ in assay [2] is 6 min; in assay [3], 7 min; in assay [4], 13 min; in assay [5] it was 16 min.

(Values after US20190367631A1 (Regeneron, published 2019).)
